One molecule from patent publication US20130260455A1 (ONCOMED PHARMACEUTICALS, published 2013) can be followed below.

Bounds are passed on as bounds.

The target of experiment [1] is T1, mutant hNotch2 missing amino acids 375-412 (EGF repeat 10 deleted), on transfected cells (human, UniProt Q04721 26-2471).
T1 construct: also called hNotch2 in the absence of EGF10
Put plainly: FACS on HEK-293 cells transiently transfected with human Notch2 Δaa 375-412 (EGF 10) and GFP. As to the method: FACS analysis of HEK-293 cells transiently transfected with the indicated Notch expression plasmid and GFP as a transfection control. GFP positive cells indicate expression of the transgene. Anti-Notch2 (59M70) was added at 20 μg/ml and detected by PE-conjugated goat anti-mouse (Caltag, #3004-4). 59R1 (IgG2) was added to the cells at 2 μg/ml and detected by PE-conjugated goat anti-human Fc gamma specific (Jackson Immunochemicals). Ligand binding was determined by incubation of the cells with human DLL4 extracellular domain (ECD) fused to rabbit IgG constant region at 5 μg/ml and detected by PE-conjugated donkey anti-rabbit.

The target in experiment [2] is T2, recombinant human Notch3 (EGF9-14) (human, UniProt Q9UM47 351-580).
T2 construct: The whole entry for hNotch3 is named here; also called hNotch3; h-Notch3
T2 sequence: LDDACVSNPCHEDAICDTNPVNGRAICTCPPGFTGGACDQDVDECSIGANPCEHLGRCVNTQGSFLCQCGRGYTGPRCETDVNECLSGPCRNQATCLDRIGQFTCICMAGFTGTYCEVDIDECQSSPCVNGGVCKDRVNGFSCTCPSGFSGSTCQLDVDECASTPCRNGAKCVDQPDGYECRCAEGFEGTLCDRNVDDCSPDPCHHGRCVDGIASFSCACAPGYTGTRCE
As to the kind of experiment: Biacore SPR. (Surface plasmon resonance follows binding to a sensor surface in real time, without labels.)

For experiment [3], the target named is T3, recombinant mouse Notch3 (EGF9-14) (mouse, UniProt Q61982 352-581).
T3 construct: domain: EGF9-14; also called mNotch3; m-Notch3
T3 sequence (looked up): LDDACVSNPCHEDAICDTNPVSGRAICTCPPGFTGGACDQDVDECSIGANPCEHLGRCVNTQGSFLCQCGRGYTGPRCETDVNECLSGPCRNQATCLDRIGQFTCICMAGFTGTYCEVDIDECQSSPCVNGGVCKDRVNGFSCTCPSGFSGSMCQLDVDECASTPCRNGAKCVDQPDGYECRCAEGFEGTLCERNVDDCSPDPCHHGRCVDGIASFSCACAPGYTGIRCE
Put plainly: Biacore SPR.

Experiment [4] deals with T4, human Notch2 as used in the Biacore analysis of Table 6 (construct not stated) (human, UniProt Q04721 375-605, limits assumed).
T4 construct: also called h-Notch2
T4 sequence: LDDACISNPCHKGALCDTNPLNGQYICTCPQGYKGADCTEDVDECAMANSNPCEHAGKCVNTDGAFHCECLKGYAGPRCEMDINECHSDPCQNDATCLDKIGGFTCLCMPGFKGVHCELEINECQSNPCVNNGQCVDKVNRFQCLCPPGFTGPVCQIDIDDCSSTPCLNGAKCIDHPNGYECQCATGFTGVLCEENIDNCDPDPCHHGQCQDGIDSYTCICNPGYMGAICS
As to the kind of experiment: Biacore SPR.

The target of experiment [5] is T5, recombinant mouse Notch2 (EGF10-15) (mouse, UniProt O35516 375-605).
T5 construct: domain: EGF10-15; also called mNotch2; m-Notch2
T5 sequence (looked up): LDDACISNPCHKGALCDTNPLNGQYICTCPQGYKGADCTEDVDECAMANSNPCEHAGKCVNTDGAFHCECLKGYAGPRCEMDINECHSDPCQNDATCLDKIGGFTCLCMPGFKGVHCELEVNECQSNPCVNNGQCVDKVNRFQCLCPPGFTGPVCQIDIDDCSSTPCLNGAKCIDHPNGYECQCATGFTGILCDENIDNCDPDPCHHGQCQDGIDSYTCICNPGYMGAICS
Put plainly: Biacore SPR.

Experiment [6] addresses T6, recombinant human Notch1 (EGF10-15) (human, UniProt P46531 372-601).
T6 construct: The whole entry for hNotch1 is named here; also called hNotch1; h-Notch1
Put plainly: Biacore 2000 SPR; Notch protein amine-coupled to CM5 chip, antibody 1-100 nM injected; Table 3: Biacore 2000, hNotch1 EGF10-15 on CM5 chip, antibody 1-100 nM; fitted KD. The method, then:
(§1) The affinities for human and mouse Notch1, Notch2, Notch3, and Notch4 were determined using a Biacore 2000 instrument. Briefly, recombinant human and mouse Notch proteins (EGF10-15 for Notch1, 2, & 4; EGF9-14 for Notch3) were immobilized on a CM5 chip using standard amine based chemistry (NHS/EDC). For hNotch2. EGF1-12 was also tested for binding. Different antibody concentrations (1-100 nM) were injected over the protein surfaces and kinetic data were collected over time. The data was fit using the simultaneous global fit equation to yield dissociation constants (KD, nM) for each Notch (Table 3).

Experiment [7] concerns the target T2, recombinant human Notch3 (EGF9-14). As to the kind of experiment: Biacore 2000 SPR; Notch protein amine-coupled to CM5 chip, antibody 1-100 nM injected. As to the method:
as §1

Experiment [8] has as its target T7, recombinant human Notch2 (EGF1-12) (human, UniProt Q04721 26-493).
T7 construct: also called hNotch2 *N2(EGF1-12)
T7 sequence: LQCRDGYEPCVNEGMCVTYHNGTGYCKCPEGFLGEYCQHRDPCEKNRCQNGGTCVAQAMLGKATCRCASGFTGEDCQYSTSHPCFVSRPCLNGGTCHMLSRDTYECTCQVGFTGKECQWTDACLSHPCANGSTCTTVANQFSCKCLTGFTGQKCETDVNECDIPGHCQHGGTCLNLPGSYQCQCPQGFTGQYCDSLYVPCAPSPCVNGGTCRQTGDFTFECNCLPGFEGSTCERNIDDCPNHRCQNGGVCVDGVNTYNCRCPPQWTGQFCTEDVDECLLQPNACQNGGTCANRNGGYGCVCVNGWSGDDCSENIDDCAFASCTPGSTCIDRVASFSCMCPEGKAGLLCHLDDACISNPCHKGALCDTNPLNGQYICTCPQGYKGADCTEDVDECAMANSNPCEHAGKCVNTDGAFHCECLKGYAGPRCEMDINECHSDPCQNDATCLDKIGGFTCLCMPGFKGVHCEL
The experiment is described as above. As to the method: as §1

Experiment [9] concerns the target T8, recombinant human Notch2 (EGF10-15) (human, UniProt Q04721 375-605).
T8 construct: The whole entry for hNotch2 is named here; also called hNotch2 **N2(EGF 10-155)
T8 sequence: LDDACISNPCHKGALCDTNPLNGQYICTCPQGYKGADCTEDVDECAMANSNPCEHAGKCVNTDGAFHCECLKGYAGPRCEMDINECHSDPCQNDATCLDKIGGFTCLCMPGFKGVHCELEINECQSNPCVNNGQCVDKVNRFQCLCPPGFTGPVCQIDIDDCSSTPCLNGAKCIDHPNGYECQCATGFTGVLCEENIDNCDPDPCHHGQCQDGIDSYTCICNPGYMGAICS
Described as above. As to the method: as §1

Experiment [10] addresses T3, recombinant mouse Notch3 (EGF9-14). The description is as above. The method, then: as §1

B1: 59R1 IgG2 antibody (antibody, V domains shown)
VH: QVQLVESGGGLVQPGGSLRLSCAASGFTFSSSGMSWVRQAPGKGLEWVSVIASSGSNTYYADSVKGRFTISRDNSKNTLYLQMNSLRAEDTAVYYCARGIFFAIWGQGTLVTVSS
VL: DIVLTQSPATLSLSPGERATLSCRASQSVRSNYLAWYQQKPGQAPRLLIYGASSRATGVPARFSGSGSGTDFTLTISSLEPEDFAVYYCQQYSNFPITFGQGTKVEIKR
notes: Human IgG2/kappa made in CHO cells; also called anti-Notch2/3 antibody 59R1
In general, Kd refers to the concentration at which binding is half-saturated. In the case of B1, in [1], the binding result is reported as “no binding (tested: 2 ug/ml)”. Further, the Kd in [2] is 0.19 nM; in [3] it was 0.32 nM; in experiment [4], 0.05 nM; in [5], 0.65 nM; in [6] it was 86.4 nM; in experiment [7] it was 0.12 nM. The Kd in experiment [8] is < 0.1 nM; in experiment [9] it was < 0.1 nM; in experiment [10] it was 0.13 nM.
